Numbering of substitutions follows the chain as printed. Numbers in names are those of the source.
Experiments:
[1] = target: T1, taxol-stabilized microtubules (α-/β-tubulin) (bovine, UniProt P81947 1-451; Q6B856 1-445); assay: co-sedimentation; Kd determination: 0-10 μM taxol-stabilized microtubules (tubulin dimer), 1 μM BSA, 1 μM protein of interest; 25 mM Hepes pH 7.5, 150 mM NaCl, 1 mM MgCl2, 1 mM EGTA, 2 mM DTE; 10 min room temperature; 350,000 g, 25 °C; gel densitometry, quadratic fit; apparent Kd; conditions: both partners purified
T1 construct: α-tubulin, named α-1B tubulin in the cross-linking analysis; β-tubulin, named β-2B tubulin in the cross-linking analysis; Polymer of α/β-tubulin dimers; Bought tubulin is likely a mixture of isotypes; In the polymerization assay (functional rows) the same tubulin was used unpolymerized; also called MTs; α-1B and β-2B tubulin; source: bought: Cytoskeleton, Inc; polymerized according to …

[2] = target: the molecule itself; assay: AUC + cross-linking; sedimentation velocity, 42,000 r.p.m., 20 °C, 20 mM Hepes pH 7.5, 300 mM NaCl, 10% glycerol, 2 mM DTE; cross-linking conditions not told (Supplementary Fig. 3)

T1 sequence (P81947 whole entry, chain 1 of 2): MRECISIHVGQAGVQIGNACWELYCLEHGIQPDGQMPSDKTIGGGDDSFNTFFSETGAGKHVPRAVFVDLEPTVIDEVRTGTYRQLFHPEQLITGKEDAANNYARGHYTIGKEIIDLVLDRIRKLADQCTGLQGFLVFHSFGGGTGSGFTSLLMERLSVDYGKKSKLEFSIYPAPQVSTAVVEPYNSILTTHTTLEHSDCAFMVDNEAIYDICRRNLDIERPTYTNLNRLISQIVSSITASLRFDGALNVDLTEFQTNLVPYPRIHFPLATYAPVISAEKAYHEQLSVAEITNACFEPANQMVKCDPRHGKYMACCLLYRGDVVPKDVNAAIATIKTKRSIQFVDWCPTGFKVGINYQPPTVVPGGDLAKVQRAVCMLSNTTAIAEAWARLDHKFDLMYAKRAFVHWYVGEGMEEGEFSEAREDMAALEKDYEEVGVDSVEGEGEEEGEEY
T1 sequence (Q6B856 whole entry, chain 2 of 2): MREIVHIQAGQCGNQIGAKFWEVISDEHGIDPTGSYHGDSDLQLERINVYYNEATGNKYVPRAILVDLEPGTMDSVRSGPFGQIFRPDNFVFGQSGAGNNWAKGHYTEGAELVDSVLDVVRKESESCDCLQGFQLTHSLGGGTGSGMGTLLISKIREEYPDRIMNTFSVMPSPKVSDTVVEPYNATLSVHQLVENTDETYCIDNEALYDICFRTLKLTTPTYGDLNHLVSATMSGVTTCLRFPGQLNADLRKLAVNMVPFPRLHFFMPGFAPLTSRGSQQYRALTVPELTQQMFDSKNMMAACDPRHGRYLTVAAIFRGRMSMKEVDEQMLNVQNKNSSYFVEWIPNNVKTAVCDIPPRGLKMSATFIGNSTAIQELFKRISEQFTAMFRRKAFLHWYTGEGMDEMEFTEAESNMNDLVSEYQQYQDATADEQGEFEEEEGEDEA

B1: SKAP^135–225 2A mutant (K161A, K164A) (domain or fragment, human, UniProt Q9Y448 135-225, looked up)
chain: VTKITKLRRENGQMKATDTATRRNVRAGYAPLSKQKSEEELKDKNQLLEAVNKQLHQKLTETQGELKDLTQKVELLEKFRDNCLAILESKG
notes: Small kinetochore-associated protein (SKAP); source: E. coli OverExpress C41 (DE3), purified (GSTrap FF, HiTrap Q FF, Superdex 200)
fold reduction of microtubule-binding affinity against wild type [1]: ~4 fold

B2: SKAP^135–225 (domain or fragment, human, UniProt Q9Y448 135-225, looked up)
chain: B1 chain with A27K, A30K
notes: Small kinetochore-associated protein (SKAP); Behaved as a trimer in AUC and cross-linking; also called WT; source: E. coli OverExpress C41 (DE3), purified (GSTrap FF, HiTrap Q FF, Superdex 200)
stoichiometry N [2]: 3
Kd [1]: ~0.58 µM

B3: SKAP^135–225 4A mutant (K140A, K149A, K161A, K164A) (domain or fragment, human, UniProt Q9Y448 135-225, looked up)
chain: B1 chain with K6A, K15A
notes: as for B1
fold reduction of microtubule-binding affinity against wild type [1]: ~31 fold

B4: SKAP^159–316:Astrin^482–850 complex (complex, human)
chain 1: VRKGYKPLSKQKSEEELKDKNQLLEAVNKQLHQKLTETQGELKDLTQKVELLEKFRDNCLAILESKGLDPALGSETLASRQESTTDHMDSMLLLETLQEELKLFNETAKKQMEELQALKVKLEMKEERVRFLEQQTLCNNQVNDLTTALKEMEQLLEM
chain 2: NKLQHLKESHEMGQALQQARNVMQSWVLISKELISLLHLSLLHLEEDKTTVSQESRRAETLVCCCFDLLKKLRAKLQSLKAEREEARHREEMALRGKDAAEIVLEAFCAHASQRISQLEQDLASMREFRGLLKDAQTQLVGLHAKQEELVQQTVSLTSTLQQDWRSMQLDYTTWTALLSRSRQLTEKLTVKSQQALQERDVAIEEKQEVSRVLEQVSAQLEECKGQTEQLELENSRLATDLRAQLQILANMDSQLKELQSQHTHCAQDLAMKDELLCQLTQSNEEQAAQWQKEEMALKHMQAELQQQQAVLAKEVRDLKETLEFADQENQVAHLELGQVECQLKTTLEVLRERSLQCENLKDTVENLTA
notes: Small kinetochore-associated protein (SKAP); Stoichiometry of the complex was not determined (AUC thwarted by limited solubility); also called SKAP:Astrin complex; source: Tnao38 insect cells (baculovirus), co-expressed, purified (HisTrap FF, Superose 6)
Kd [1]: ~1.6 µM

B5: SKAP^159–316 (expressed alone in E. coli) (domain or fragment, human, UniProt Q9Y448 159-316, looked up)
chain: B4 chain 1
notes: Small kinetochore-associated protein (SKAP); source: E. coli OverExpress C41 (DE3), purified (GSTrap FF, HiTrap Q FF, Superdex 200); not shown: GST, N-terminal, cleaved
binding result [1]: binds

B6: SKAP^159–225 (domain or fragment, human, UniProt Q9Y448 159-225, looked up)
chain: VRKGYKPLSKQKSEEELKDKNQLLEAVNKQLHQKLTETQGELKDLTQKVELLEKFRDNCLAILESKG
notes: as for B5
Kd [1]: ~2.5 µM

B7: SKAP^103–225 (domain or fragment, human, UniProt Q9Y448 103-225, looked up)
chain: TQTRATSKSLLPVRSKEVDVSKQLHSGGPENDVTKITKLRRENGQMKATDTATRRNVRKGYKPLSKQKSEEELKDKNQLLEAVNKQLHQKLTETQGELKDLTQKVELLEKFRDNCLAILESKG
notes: Small kinetochore-associated protein (SKAP)
binding result [1]: binds

Reference: article PMC4843017, “Molecular requirements for the inter-subunit interaction and kinetochore recruitment of SKAP and Astrin” (Nature Communications, 2016)
